In US20260274955A1 (JANUX THERAPEUTICS, published 2026):

B1: Phage-79 (peptide)
peptide: YCDGHSPMYILKCL
B2: Phage-23 (peptide)
peptide: YCMGHSHEHIWKCL
B3: Phage-74 (peptide)
peptide: YCEGHSPEYMAKCL
B4: Phage-130 (peptide)
peptide: YCQGHLPEYMNKCL
B5: Phage-107 (peptide)
peptide: YCDGHLPQYMWKCL
B6: Phage-78 (peptide)
peptide: YCDGHLPEYMMKCL
B7: Phage-138 (peptide)
peptide: YCEGHSPEYMYKCL
B8: Phage-81 (peptide)
peptide: YCEGHLPQYMAKCL
B9: Phage-133 (peptide)
peptide: YCDGHLPLYLAKCL
B10: Phage-112 (peptide)
peptide: YCSGHLPQYMQKCL
B11: Phage-113 (peptide)
peptide: YCDGHSSEYMAKCL
B12: Phage-110 (peptide)
peptide: YCQGHAPEYMAKCL
B13: Phage-137 (peptide)
peptide: YCDGHSAEYMAKCL
B14: Phage-104 (peptide)
peptide: YCEGHAAEYMEKCL
B15: Phage-76 (peptide)
peptide: YCDGHLPQYMAKCL
B16: Phage-84 (peptide)
peptide: YCDGHLPIYMSKCL
B17: Phage-83 (peptide)
peptide: YCDGHLPMYMQKCL
B18: Phage-134 (peptide)
peptide: YCDGHLPQYMNKCL
B19: Phage-87 (peptide)
peptide: YCEGHLPEYMLKCL
B20: Phage-131 (peptide)
peptide: YCDGHSQEYMAKCL
B21: Phage-111 (peptide)
peptide: YCDGHSQEYMMKCL
B22: Phage-129 (peptide)
peptide: YCEGHAWEYMAKCL
B23: Phage-109 (peptide)
peptide: YCDGHLPMYMMKCL
B24: Phage-75 (peptide)
peptide: YCDGHLPEYMSKCL
B25: Phage-82 (peptide)
peptide: YCDGHSPLYMWKCL
B26: Phage-108 (peptide)
peptide: YCDGHVPEYMAKCL
B27: Phage-128 (peptide)
peptide: YCAGHLPEYMEKCL
B28: Phage-24 (peptide)
peptide: YCAGHSHEYLAKCE

Each binder was assayed against Anti-CD28 Fab (SEQ ID NOs: 202, 203) (assay: phage binding ELISA on captured Fab;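 further: clonal phage supernatants added briefly to wells pre-incubated with CD28 antigen or with blocking buffer only, then washed, bound phage read by ELISA using HRP-coupled anti-M13 antibody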).
Chain of Anti-CD28 Fab (SEQ ID NOs: 202, 203) (VH, as listed by the source, chain 1 of 2): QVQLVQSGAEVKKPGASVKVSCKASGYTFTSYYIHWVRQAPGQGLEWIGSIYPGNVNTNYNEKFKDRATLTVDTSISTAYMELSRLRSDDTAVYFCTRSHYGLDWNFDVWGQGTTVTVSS
Chain of Anti-CD28 Fab (SEQ ID NOs: 202, 203) (VL, as listed by the source, chain 2 of 2): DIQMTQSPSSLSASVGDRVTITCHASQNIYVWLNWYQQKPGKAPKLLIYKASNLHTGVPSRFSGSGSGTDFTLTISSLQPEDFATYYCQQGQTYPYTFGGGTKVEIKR
Experimental: Clonal phage were harvested as crude supernatants and screened via standard ELISAs. […] Prior to the addition of clonal phage, wells were incubated with blocking buffer and CD28 antigen or blocking buffer alone. Without washing or aspirating, clonal phage supernatants were then added to the wells and incubated for a short time. Wells were then washed followed by detection of bound phage using a horse radish conjugated anti-M13 antibody.

Q: How did the “Anti-CD28 Fab signal” value turn out when B1 was run?
A: 2.34

Q: With B2 as the binder, how does the “Anti-CD28 Fab signal” value read?
A: 0.87

Q: For B3, which “Anti-CD28 Fab signal” value is on record?
A: 2.35

Q: For B4, which “Anti-CD28 Fab signal” value is on record?
A: 2.24

Q: Which “Anti-CD28 Fab signal” value does the source give for B5 here?
A: 2.29

Q: B6 was tested. Which “Anti-CD28 Fab signal” value did it give?
A: 2.34

Q: For B7, which “Anti-CD28 Fab signal” value is on record?
A: 2.23

Q: With B8 as the binder, how does the “Anti-CD28 Fab signal” value read?
A: 2.34

Q: Which “Anti-CD28 Fab signal” value does the source give for B9 here?
A: 2.23

Q: B10 was tested. Which “Anti-CD28 Fab signal” value did it give?
A: 2.28

Q: How did the “Anti-CD28 Fab signal” value turn out when B11 was run?
A: 2.28

Q: B12 was tested. Which “Anti-CD28 Fab signal” value did it give?
A: 2.28

Q: How did the “Anti-CD28 Fab signal” value turn out when B13 was run?
A: 2.23

Q: How did the “Anti-CD28 Fab signal” value turn out when B14 was run?
A: 2.3

Q: How did the “Anti-CD28 Fab signal” value turn out when B15 was run?
A: 2.35

Q: Which “Anti-CD28 Fab signal” value does the source give for B16 here?
A: 2.32

Q: With B17 as the binder, how does the “Anti-CD28 Fab signal” value read?
A: 2.33

Q: For B18, which “Anti-CD28 Fab signal” value is on record?
A: 2.23

Q: B19 was tested. Which “Anti-CD28 Fab signal” value did it give?
A: 2.32

Q: For B20, which “Anti-CD28 Fab signal” value is on record?
A: 2.24

Q: With B21 as the binder, how does the “Anti-CD28 Fab signal” value read?
A: 2.28

Q: For B22, which “Anti-CD28 Fab signal” value is on record?
A: 2.24

Q: Which “Anti-CD28 Fab signal” value does the source give for B23 here?
A: 2.28

Q: How did the “Anti-CD28 Fab signal” value turn out when B24 was run?
A: 2.35

Q: B25 was tested. Which “Anti-CD28 Fab signal” value did it give?
A: 2.34

Q: How did the “Anti-CD28 Fab signal” value turn out when B26 was run?
A: 2.29

Q: With B27 as the binder, how does the “Anti-CD28 Fab signal” value read?
A: 2.24

Q: With B28 as the binder, how does the “Anti-CD28 Fab signal” value read?
A: 0.86
